In PMC10786891, “Massively parallel profiling of RNA-targeting CRISPR-Cas13d”:
Changes are numbered by the printed parent chain.

T1: EsCas13d, nuclease-dead (Eubacterium siraeum, UniProt B0MS50, R295A;H300A;R849A;H854A)
T1 sequence: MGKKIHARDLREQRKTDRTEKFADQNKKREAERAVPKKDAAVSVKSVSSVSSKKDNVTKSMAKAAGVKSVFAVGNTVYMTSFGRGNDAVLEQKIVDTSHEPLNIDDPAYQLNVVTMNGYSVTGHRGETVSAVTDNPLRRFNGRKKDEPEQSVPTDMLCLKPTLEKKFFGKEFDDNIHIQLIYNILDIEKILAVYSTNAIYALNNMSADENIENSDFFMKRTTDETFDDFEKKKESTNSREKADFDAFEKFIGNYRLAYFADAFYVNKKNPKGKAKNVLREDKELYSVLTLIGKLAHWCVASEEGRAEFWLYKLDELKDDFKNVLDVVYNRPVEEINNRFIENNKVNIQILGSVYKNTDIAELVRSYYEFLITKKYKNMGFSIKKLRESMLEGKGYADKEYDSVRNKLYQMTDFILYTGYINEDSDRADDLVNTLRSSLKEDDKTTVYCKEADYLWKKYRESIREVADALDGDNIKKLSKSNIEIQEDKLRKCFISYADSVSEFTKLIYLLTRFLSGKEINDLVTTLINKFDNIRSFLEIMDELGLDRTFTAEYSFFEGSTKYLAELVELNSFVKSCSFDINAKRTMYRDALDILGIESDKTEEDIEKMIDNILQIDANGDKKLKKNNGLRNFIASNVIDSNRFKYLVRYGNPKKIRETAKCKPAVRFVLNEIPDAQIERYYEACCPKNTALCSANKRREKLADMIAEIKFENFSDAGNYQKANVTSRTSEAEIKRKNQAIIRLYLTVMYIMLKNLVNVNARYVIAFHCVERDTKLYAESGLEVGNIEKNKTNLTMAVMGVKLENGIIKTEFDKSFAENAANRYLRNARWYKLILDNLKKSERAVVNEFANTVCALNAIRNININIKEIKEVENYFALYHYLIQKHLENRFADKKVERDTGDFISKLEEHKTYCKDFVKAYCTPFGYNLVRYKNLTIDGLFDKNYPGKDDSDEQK

B1: target 1 MT 5'PFS GGC 3'PFS AUG (mixed)
RNA 1: CACCCGUGCAAAAAUGCAGGGGUCUAAAACUGAGCGGAUAACCUCUCUAUGG
RNA 2: GGGAAUGGAUCCACAUCUACGAAUUCGGCCCAUAGAGAGGUUAUCCGCUCAAUGAGAUCGGAAGAGCACACGU
B2: target 1 MT 5'PFS AGA 3'PFS CCG (mixed)
RNA 1: B1 RNA 1
RNA 2: B1 RNA 2 with G27A, C29A, A52C, U53C
B3: target 1 MT 5'PFS UAU 3'PFS UCC (mixed)
RNA 1: B1 RNA 1
RNA 2: B1 RNA 2 with G27U, G28A, C29U, A52U, U53C, G54C
B4: target 1 MT 5'PFS GCC 3'PFS UAG (mixed)
RNA 1: B1 RNA 1
RNA 2: B1 RNA 2 with G28C, A52U, U53A
B5: target 1 MT 5'PFS GAC 3'PFS CCC (mixed)
RNA 1: B1 RNA 1
RNA 2: B1 RNA 2 with G28A, A52C, U53C, G54C
B6: target 1 MT 5'PFS CAA 3'PFS CCG (mixed)
RNA 1: B1 RNA 1
RNA 2: B1 RNA 2 with G27C, G28A, C29A, A52C, U53C
B7: target 1 MT 5'PFS CAA 3'PFS CCC (mixed)
RNA 1: B1 RNA 1
RNA 2: B1 RNA 2 with G27C, G28A, C29A, A52C, U53C, G54C
B8: target 1 insA 3' of 5,insC 3' of 3 (mixed)
RNA 1: B1 RNA 1
RNA 2: GGGAAUGGAUCCACAUCUACGAAUUCGUACCAUAGAGAGGUUAUCCGACUCCACCGAGAUCGGAAGAGCACACGU
B9: target 1 MT 5'PFS GGC 3'PFS AUU (mixed)
RNA 1: B1 RNA 1
RNA 2: B1 RNA 2 with G54U
B10: target 1 MT 5'PFS CAA 3'PFS AUU (mixed)
RNA 1: B1 RNA 1
RNA 2: B1 RNA 2 with G27C, G28A, C29A, G54U
B11: target 1 MT 5'PFS UCC 3'PFS CCU (mixed)
RNA 1: B1 RNA 1
RNA 2: B1 RNA 2 with G27U, G28C, A52C, U53C, G54U
B12: target 1 MT 5'PFS GCC 3'PFS UAU (mixed)
RNA 1: B1 RNA 1
RNA 2: B1 RNA 2 with G28C, A52U, U53A, G54U
B13: target 1 MT 5'PFS GCC 3'PFS UAC (mixed)
RNA 1: B1 RNA 1
RNA 2: B1 RNA 2 with G28C, A52U, U53A, G54C
B14: target 1 insG 3' of 19,insG 3' of 6 (mixed)
RNA 1: B1 RNA 1
RNA 2: GGGAAUGGAUCCACAUCUACGAAUUCGUACCAUGAGAGAGGUUAUCCGGCUCACCGAGAUCGGAAGAGCACACGU
B15: target 1 MT 5'PFS GCC 3'PFS UAA (mixed)
RNA 1: B1 RNA 1
RNA 2: B1 RNA 2 with G28C, A52U, U53A, G54A
B16: target 1 MT 5'PFS AGA 3'PFS CCU (mixed)
RNA 1: B1 RNA 1
RNA 2: B1 RNA 2 with G27A, C29A, A52C, U53C, G54U
B17: target 1 MT 5'PFS GUU 3'PFS AAC (mixed)
RNA 1: B1 RNA 1
RNA 2: B1 RNA 2 with G28U, C29U, U53A, G54C
B18: target 1 MT 5'PFS UCC 3'PFS CCG (mixed)
RNA 1: B1 RNA 1
RNA 2: B1 RNA 2 with G27U, G28C, A52C, U53C

Target: T1, EsCas13d, nuclease-dead
Assay: crRNA (strand 1, pre-loaded); Mg2+; 40 mM Tris-HCl pH 7.5, 150 mM NaCl, 6 mM MgCl2, 1 mM DTT, 0.1% Tween-20, 0.2 mg/ml BSA; 25 C; 10 min per concentration, then washed
Details: tags: His6-TwinStrep-SUMO cleaved; N-terminal SNAP kept (SNAP-Surface 488); label: 3' end held by stalled T7 RNA polymerase

Row | Binder | Kd [µM]
1 | B1 | 0.0225 ± 0.007
2 | B2 | 0.037 ± 0.0105
3 | B3 | 0.036 ± 0.0135
4 | B4 | 0.0218 ± 0.0061
5 | B5 | ~0.037
6 | B6 | 0.024 ± 0.0065
7 | B7 | ~0.0305
8 | B8 | 0.0123 ± 0.0022
9 | B9 | 0.0196 ± 0.00475
10 | B10 | 0.0098 ± 0.0035
11 | B11 | ~0.015
12 | B12 | 0.0108 ± 0.00245
13 | B13 | 0.016 ± 0.0055
14 | B14 | 0.076 ± 0.009
15 | B15 | 0.016 ± 0.006
16 | B16 | ~0.0645
17 | B17 | 0.052 ± 0.019
18 | B18 | 0.018 ± 0.005
